# PMC5940361, “Human LINE-1 retrotransposition requires a metastable coiled coil and a positively charged N-terminus in L1ORF1p” (eLife, 2018)
# Assays:
# [1] = target: hL1ORF1p-Δcons (non-conserved N-terminal portion of human L1ORF1p, GPHM1-E103) (human) (UniProt Q9UN81); assay: SEC-MALS; hL1ORF1p-Δcons at 5.2 mM, Superdex 75 (10/300 GL), gel filtration buffer; monomer to dimer
# [2] = target: the molecule itself; assay: SEC-MALS; Superdex 200 (10/300 GL), gel filtration buffer (10 mM HEPES pH 7.5, 300 mM NaCl, 1 mM DTT)
Molecule,stoichiometry N [1],stoichiometry N [2]
"hL1ORF1p-Δcons (non-conserved N-terminal portion of human L1ORF1p, GPHM1-E103) (from UniProt Q9UN81 1-103) (domain or fragment)",2,
"hL1ORF1p-ΔNTR (human L1ORF1p without the NTR, GPHMS53-M338) (domain or fragment, residues printed before S53 in the construct's description (GPHMS53-M338); not from L1ORF1p; also called remainder of human L1ORF1p; truncated trimer; not shown: His6, N-terminal, cleaved) GPHMSELREDIQTKGKEVENFEKNLEECITRITNTEKCLKELMELKTKARELREECRSLRSRCDQLEERVSAAEDEINEIKREGKFREKRIKRNEQSLQEIWDYVKRPNLRLIGVPESDVENGTKLENTLQDIIQENFPNLARQANVQIQEIQRTPQRYSSRRATPRHIIVRFTKVEMKEKMLRAAREKGRVTLKGKPIRLTADLSAETLQARREWGPIFNILKEKNFQPRISYPAKLSFISEGEIKYFIDKQMLRDFVTTRPALKELLKEALNMERNNRYQPLQNHAKM",,3
"hL1ORF1p-cc (coiled coil domain of human L1ORF1p, GPHMS53-Y152) (domain or fragment, residues printed before S53 in the construct's description (GPHMS53-Y152); not from L1ORF1p; human LINE-1 ORF1 protein (L1ORF1p) of the L1.3 element, residues S53-Y152, amplified from a plasmid with the M121A/M125I/M128I triple mutation; The M of GPHM probably stands at position 52 in place of Y52 (the structure is described as residues 52-152); also called L1ORF1p coiled coil domain; coiled coil …) GPHMSELREDIQTKGKEVENFEKNLEECITRITNTEKCLKELMELKTKARELREECRSLRSRCDQLEERVSAAEDEINEIKREGKFREKRIKRNEQSLQEIWDY",,3
